Measurements taken from patent US20230277625A1 (SIMCHA IL 18, published 2023).
Where a chain is given by its changes, count along the chain named.

Experiments:
[1] = molecular target: T1, Human IL-18BP (amino acids 31-194), biotinylated (human, UniProt O95998 31-194, biotin on the AviTag (BirA ligase) where used biotinylated); assay: on-yeast binding isotherm (flow cytometry)
T1 construct: Soluble decoy receptor; also called hIL-18BP; recombinant IL-18BP
T1 sequence: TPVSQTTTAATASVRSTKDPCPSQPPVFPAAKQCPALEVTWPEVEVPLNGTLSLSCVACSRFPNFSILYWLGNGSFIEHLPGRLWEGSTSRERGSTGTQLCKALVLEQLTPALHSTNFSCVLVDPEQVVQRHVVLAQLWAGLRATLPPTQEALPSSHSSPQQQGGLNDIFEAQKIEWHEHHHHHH

[2] = molecular target: T1, Human IL-18BP (amino acids 31-194), …; assay: on-yeast binding isotherms; KD for IL-18BP over KD for IL-18Rα
[3] = molecular target: T1, Human IL-18BP (amino acids 31-194), …; assay: on-yeast binding isotherms; KD ratio relative to WT IL-18
[4] = molecular target: T1, Human IL-18BP (amino acids 31-194), …; assay: SPR; KD(IL-18BP)/KD(IL-18Rα) normalized to WT IL-18
[5] = molecular target: T1, Human IL-18BP (amino acids 31-194), …; assay: SPR; average of 2 studies
[6] = molecular target: T2, Human IL-18Rα ectodomain (amino acids 19-329), biotinylated (human, UniProt Q13478 19-329, biotin on the AviTag (BirA ligase)); assay: SPR; average of 2 studies
T2 construct: range 19-329; Secreted from insect cells (gp67 signal peptide removed); also called hIL-18Rα; hIL18Rα
T2 sequence: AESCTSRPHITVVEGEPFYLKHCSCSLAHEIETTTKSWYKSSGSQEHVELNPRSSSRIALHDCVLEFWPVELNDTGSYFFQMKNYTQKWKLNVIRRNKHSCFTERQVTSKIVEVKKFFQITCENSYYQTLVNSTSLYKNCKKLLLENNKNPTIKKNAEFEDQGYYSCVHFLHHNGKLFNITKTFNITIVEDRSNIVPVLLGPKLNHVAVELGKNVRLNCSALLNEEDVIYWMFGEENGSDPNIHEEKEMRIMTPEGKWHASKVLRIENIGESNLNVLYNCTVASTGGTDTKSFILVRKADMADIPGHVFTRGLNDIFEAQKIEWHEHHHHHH

[7] = molecular target: T1, Human IL-18BP (amino acids 31-194), …; assay: SPR; KD for IL-18BP over KD for IL-18Rα
Description: (§1) Experiments were conducted using a Biacore T100 and carried out at 25° C. Biotinylated IL-18Rα or IL-18BP were immobilized onto a Biacore biotin capture chip (Series S CAP sensor chip, GE Healthcare) to yield an Rmax of ˜50 RU (IL-18Rα) or ˜10 RU (IL-18BP). Measurements were made with serial dilutions of the IL-18 variants in HEPES buffered Saline-P+buffer (10 mM HEPES pH 7.4, 150 mM NaCl, 0.005% surfactant P20). The surface was regenerated by three 60-sec injections of regeneration buffer (3/4 (v/v) 8M guanidine hydrochloride with 1/4 (v/v) 1M sodium hydroxide). Experiments were performed in multiple channels simultaneously for increased observations. All data were analyzed with the Biacore T100 evaluation software version 2.0 with a 1:1 Langmuir binding model.
(§2) To additionally characterize the receptor binding activities of the DR-IL-18 variants, the cytokines were expressed recombinantly and surface plasmon resonance for IL-18Rα and IL-18BP was performed (see FIG. 5B for representative traces).

[8] = molecular target: T1, Human IL-18BP (amino acids 31-194), …; assay: SPR (Biacore T100), IL-18BP captured via biotin, IL-18 as analyte
Description: as §1, §2

[9] = molecular target: T1, Human IL-18BP (amino acids 31-194), …; assay: on-yeast binding isotherm (flow cytometry); members per FIG. 5A legend
Description: (§3) Individual colonies of IL-18 yeast were grown overnight at 30° C. in SDCAA liquid media and induced in SGCAA liquid media for 1 day at 20° C. IL-18 display levels on yeast were verified by flow cytometry using an anti-cMyc tag antibody (anti-myc-PE; Cell Signaling Technologies). Receptor staining with biotinylated IL-18Rα (with or without IL-18R β) or biotinylated IL-18BP was performed in PBS supplemented with 0.5% BSA and 2 mM EDTA (PBE) on ice. All analysis was performed on a Sony SA3800 flow cytometer.
as §2

[10] = molecular target: T2, Human IL-18Rα ectodomain (amino acids …); assay: SPR (Biacore T100), receptor captured via biotin, IL-18 as analyte
Description: as §1, §2

[11] = molecular target: T1, Human IL-18BP (amino acids 31-194), …; assay: SPR; KD ratio relative to WT IL-18
Description: as §1, §2

[12] = molecular target: T1, Human IL-18BP (amino acids 31-194), …; assay: on-yeast binding isotherms; 20 µM used for NBD; yeast-displayed variant; ratio computed with 20 µM put in for NBD
[13] = molecular target: T1, Human IL-18BP (amino acids 31-194), …; assay: on-yeast binding isotherms; KD ratio relative to WT IL-18; yeast-displayed variant; ratio normalized to WT, from the 20 µM placeholder
[14] = molecular target: T1, Human IL-18BP (amino acids 31-194), …; assay: on-yeast binding isotherms; 20 µM used for NBD
[15] = molecular target: T3, Mouse IL-18BP (amino acids 31-194), biotinylated (mouse, UniProt Q9Z0M9 29-193, biotin on the AviTag (BirA ligase)); assay: on-yeast binding isotherms; 10 µM used for NBD; yeast-displayed variant; ratio computed with 10 µM put in for NBD
T3 construct: also called mIL-18BP
T3 sequence: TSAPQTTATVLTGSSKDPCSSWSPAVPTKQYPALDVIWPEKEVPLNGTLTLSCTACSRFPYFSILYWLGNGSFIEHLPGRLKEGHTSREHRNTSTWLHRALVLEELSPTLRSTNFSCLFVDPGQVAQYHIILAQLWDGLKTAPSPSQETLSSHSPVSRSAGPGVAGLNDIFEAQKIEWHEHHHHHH
Description: as §3

[16] = molecular target: T4, Mouse IL-18Rα ectodomain (amino acids 19-329), biotinylated (mouse, UniProt Q61098 19-329, biotin on the AviTag (BirA ligase)); assay: on-yeast binding isotherm (flow cytometry)
T4 construct: range 19-329; Secreted from Expi293 cells (H7 signal peptide removed); also called mIL-18Rα; mIL18Ra
T4 sequence: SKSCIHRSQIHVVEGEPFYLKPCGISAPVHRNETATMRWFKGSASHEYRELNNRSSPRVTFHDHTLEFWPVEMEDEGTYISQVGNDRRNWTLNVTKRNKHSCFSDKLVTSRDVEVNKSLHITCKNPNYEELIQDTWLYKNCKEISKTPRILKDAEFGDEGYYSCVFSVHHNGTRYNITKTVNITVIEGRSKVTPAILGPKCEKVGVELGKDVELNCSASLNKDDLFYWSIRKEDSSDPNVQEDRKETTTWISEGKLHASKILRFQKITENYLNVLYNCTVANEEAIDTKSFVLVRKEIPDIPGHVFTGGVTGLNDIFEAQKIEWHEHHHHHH
Description: as §3

[17] = molecular target: T4, Mouse IL-18Rα ectodomain (amino acids …); assay: SPR (Biacore T100), receptor captured via biotin, IL-18 as analyte
Description: as §1

[18] = molecular target: T3, Mouse IL-18BP (amino acids 31-194), …; assay: SPR (Biacore T100), IL-18BP captured via biotin, IL-18 as analyte; SPR, soluble variant
Description: as §1

[19] = molecular target: T3, Mouse IL-18BP (amino acids 31-194), …; assay: SPR; KD ratio relative to WT IL-18; SPR; ratio normalized to WT
Description: as §1

[20] = molecular target: T3, Mouse IL-18BP (amino acids 31-194), …; assay: yeast binding isotherms and SPR; members per FIG. 11A legend
Description: as §3, §1

[21] = molecular target: T3, Mouse IL-18BP (amino acids 31-194), …; assay: SPR; KD for IL-18BP over KD for IL-18Rα; SPR; ratio of two measured KD
Description: as §1

[22] = molecular target: T3, Mouse IL-18BP (amino acids 31-194), …; assay: on-yeast binding isotherms; KD ratio relative to WT IL-18; yeast-displayed variant; ratio normalized to WT, from the 10 µM placeholder
Description: as §3

B1: SEQ ID NO: 36 (human DR-IL-18 variant hCS3) (ligand)
chain: RFGKLESKLSVIRNLNDQVLFIDQGNRPLFEDMTDSDCRDNAPRTIFIISTYKDSQPRGKAVTISVKCEKISTLSCENKIISFKEMNPPDNIKDTKSDIIFFQRDVPGHKHKMQFESSSYEGYFLACEKERDLFKLILKKEDELGDRSIMFTVQNED
notes: Engineered variant
Kd [1]: 11600 nM | KD ratio IL-18BP/IL-18Rα [2]: 103 | Dissociation Constant Ratio normalized to WT IL-18 [3]: 348 | IL-18 BP:Rα Dissociation Constant Ratio [4]: 4350 | Kd [5]: 19.3 nM | Kd [6]: 9.1 nM | KD ratio IL-18BP/IL-18Rα [7]: 2.27 | Kd [8]: 18.6 nM | EC50 [9]: > 1000 nM | Kd [10]: 8.18 nM | Dissociation Constant Ratio normalized to WT IL-18 [11]: 3500

B2: SEQ ID NO: 39 (human DR-IL-18 variant hA8) (ligand)
chain: B1 chain with R1Y, K8R, T51K, S55K, G59A, K60Q, V153I
notes: Engineered variant
KD ratio IL-18BP/IL-18Rα [12]: > 347 | Dissociation Constant Ratio normalized to WT IL-18 [13]: > 1170

B3: SEQ ID NO: 57 (human DR-IL-18 variant hB9) (ligand)
chain: B1 chain with L5H, K53R, Q103E, D105N, H111Y
notes: Engineered variant
Dissociation Constant Ratio normalized to WT IL-18 [3]: > 534 | KD ratio IL-18BP/IL-18Rα [14]: > 157

B4: SEQ ID NO: 52 (human DR-IL-18 variant hH3) (ligand)
chain: B1 chain with K8R
notes: Engineered variant
Dissociation Constant Ratio normalized to WT IL-18 [3]: > 809 | KD ratio IL-18BP/IL-18Rα [14]: > 239

B5: SEQ ID NO: 62 (murine DR-IL-18 variant mC1) (ligand)
chain: NFGRLHCTTAVIRNINDQVLFVDKRQPVFEDMTDIDQSASEPQTRLIIYAYVDRRLRGKAVTLSVKDSKMSTLSCKNKIISFEEMDPPENIDDIQSDLIFFQKKVPGHNKMEFESSLYEGHFLACQKEDDAFKLILKKKDENGDKSVMFTLTNLHQS
notes: Engineered variant
KD ratio IL-18BP/IL-18Rα [15]: > 233 | Kd [16]: 43 nM | Kd [17]: 1.09 nM | Kd [18]: 28700 nM | Dissociation Constant Ratio normalized to WT IL-18 [19]: 1.44e+07 | Kd [20]: > 1000 nM | KD ratio IL-18BP/IL-18Rα [21]: 26300 | Dissociation Constant Ratio normalized to WT IL-18 [22]: > 1230
